According to patent publication US20150259371A1, “METHODS AND COMPOUNDS FOR INHIBITING GLYCOSYLTRANSFERASES” (SIMON FRASER UNIVERSITY, priority 2010, published 2015):

Substrate: COc1ccc(O[C@H]2S[C@H](CO)[C@@H](O)[C@H](O)[C@H]2NC(C)=O)cc1
Assay: OGA kinetics, Michaelis-Menten hydrolysis of pMP glycosides
Type: biochemical, human
Settings: other: 37° C., pH 7.4
Description: OGA kinetics: Synthesis and characterization of para-methoxyphenyl-5SGlcNAc is described in Example II. Kinetics were performed at 37° C. in PBS, pH 7.4 in a total volume of […]. Substrate concentrations of 25 μM to 1.5 mM were used for pMP-GlcNAc and 25 to 800 μM for pMP-5SGlcNAc. OGA (which was over-expressed and purified as described in Ref. ^42) was used at a concentration of 1 μM for pMP-GlcNAc and 3.6 μM for pMP-5SGlcNAc. Rates were monitored at a wavelength of 296 nm over the course of 10-20 min. Data were fit to the Michaelis-Menten equation in GRAFIT^41 and the kcat and KM values determined.

B1: OGA (Homo sapiens) (protein)
chain: MVQKESQATLEERESELSSNPAASAGASLEPPAAPAPGEDNPAGAGGAAVAGAAGGARRFLCGVVEGFYGRPWVMEQRKELFRRLQKWELNTYLYAPKDDYKHRMFWREMYSVEEAEQLMTLISAAREYEIEFIYAISPGLDITFSNPKEVSTLKRKLDQVSQFGCRSFALLFDDIDHNMCAADKEVFSSFAHAQVSITNEIYQYLGEPETFLFCPTEYCGTFCYPNVSQSPYLRTVGEKLLPGIEVLWTGPKVVSKEIPVESIEEVSKIIKRAPVIWDNIHANDYDQKRLFLGPYKGRSTELIPRLKGVLTNPNCEFEANYVAIHTLATWYKSNMNGVRKDVVMTDSEDSTVSIQIKLENEGSDEDIETDVLYSPQMALKLALTEWLQEFGVPHQYSSRQVAHSGAKASVVDGTPLVAAPSLNATTVVTTVYQEPIMSQGAALSGEPTTLTKEEEKKQPDEEPMDMVVEKQEETDHKNDNQILSEIVEAKMAEELKPMDTDKESIAESKSPEMSMQEDCISDIAPMQTDEQTNKEQFVPGPNEKPLYTAEPVTLEDLQLLADLFYLPYEHGPKGAQMLREFQWLRANSSVVSVNCKGKDSEKIEEWRSRAAKFEEMCGLVMGMFTRLSNCANRTILYDMYSYVWDIKSIMSMVKSFVQWLGCRSHSSAQFLIGDQEPWAFRGGLAGEFQRLLPIDGANDLFFQPPPLTPTSKVYTIRPYFPKDEASVYKICREMYDDGVGLPFQSQPDLIGDKLVGGLLSLSLDYCFVLEDEDGICGYALGTVDVTPFIKKCKISWIPFMQEKYTKPNGDKELSEAEKIMLSFHEEQEVLPETFLANFPSLIKMDIHKKVTDPSVAKSMMACLLSSLKANGSRGAFCEVRPDDKRILEFYSKLGCFEIAKMEGFPKDVVILGRSL
notes: made in house
B1 showed a Km of 35 µM.
